Data taken from publication PMC9959518, “Influence of the Drug Position on Bioactivity in Angiopep-2—Daunomycin Conjugates” (International Journal of Molecular Sciences, 2023).

What was measured:
[1] = tested on: U87 human glioblastoma cells; type: cell-based; conditions: MTT test, 0.05–50 µM, treated 24 h (method: overnight), washed, further 48 h (method: 72 h) at 37 °C, two independent experiments with four parallel measurements
Procedure: The in vitro cytostatic effect of the synthesized peptide (1) and daunomycin-peptide conjugates (2–8) was investigated on U87 human glioblastoma cells. The cells were treated with the peptide and conjugates at different concentrations (0.05–50 μM) for 24 h, and after a washing step, the cells were incubated for another […] at 37 °C. The cytostatic effect of the compounds was determined using the MTT test.
U87 human glioblastoma cell line was cultured in DMEM supplemented with 10% FBS, 2 mM L-glutamine, penicillin–streptomycin antibiotic mixture (50 IU/mL and 50 μg/mL, respectively), 1 mM sodium pyruvate, and 1% non-essential amino acid mixture. The cell culture was maintained at 37 °C in a humidified atmosphere with 5% CO2. The U87 cell line was a generous gift of Dr. József Tóvári (Department of Experimental Pharmacology, National Institute of Oncology, Budapest, Hungary).
For determining the cytostatic effect of the conjugates, U87 cells were grown to confluency and then divided into 96-well tissue culture plates with an initial cell number of 5.0 × 10^3 cells/well. After 24 h incubation at 37 °C, the cells were treated with the compounds overnight in the concentration range of 0.05–50 μM in 200 μL final volume containing 1.0 v/v% DMSO, whereas control cells were treated only with serum-free medium or with 1.0 v/v% DMSO at the same conditions. After the incubation, cells were washed twice with serum-free medium, then the cells were cultured for an additional 72 h in 10% serum-containing medium at 37 °C. Following that, MTT solution (at c = 0.37 mg/mL final concentration) was added to each well. The respiratory chain [32] and other electron transport systems reduced MTT and thereby formed non-water-soluble violet formazan crystals within the cells. The amount of these crystals can be determined by spectrophotometry and serves as an estimate for the number of mitochondria in addition to the number of living cells in the well [35]. After 3 h of incubation with MTT, the cells were centrifuged for 5 min at 2000 rpm and the supernatant was removed. The obtained formazan crystals were dissolved in DMSO (100 µL), and the optical density (OD) of the samples was measured at λ = 540 nm and 620 nm, respectively, using ELISA Reader (iEMS Reader, Labsystems, Finland). The OD620 values were subtracted from the OD540 values. The percent of cytostasis was calculated with the following equation:(1) Cytostatic effect (%)=1−ODtreated/ODcontrol×100 where the ODtreated and ODcontrol values correspond to the optical densities of the treated and the control wells, respectively. In each case, two independent experiments were carried out with four parallel measurements. Cytostasis was plotted as a function of concentration, and the half-maximal inhibitory concentration was calculated based on a sigmoid curve fitted on the data points using Microcal™ Origin 2018 software. IC50 represents the concentration of a compound that is required for 50% inhibition, expressed in micromolar units.

[2] = tested on: U87 human glioblastoma cells; assay: In vitro cellular uptake by flow cytometry; type: cell-based; conditions: 50 µM
Procedure: The in vitro cytostatic effect of any peptide–drug conjugate is influenced by many factors. One of the main effects is the cellular uptake of the conjugates by cells. Therefore, we compared the cellular uptake of the different conjugates on U87 glioblastoma cells. The cells were incubated with the conjugates (2, 10, and 50 µM) for 1 h. Then, after a washing step, the cells were treated with trypsin to remove the cell surface-bound conjugates and other cell surface structures that enable non-specific binding, so only the quantity of the conjugates actually entering the cells was detected by flow cytometry. […] The cellular uptake of the conjugates was concentration-dependent. […]
U87 cells were plated into 24-well tissue culturing plates with the initial cell number of 10^5 cells/well 24 h before the experiment. […] Data were recorded for 5000–10,000 cells at λex = 488 nm. The fluorescence mean was calculated. Daunomycin-positive cells were also gated from the living cell population, and the percentage of daunomycin-containing cells was calculated. The gating was determined from the untreated control cell count/fluorescence intensity histogram by adjusting the lowest fluorescence intensity value of the gated cells to the highest fluorescence intensity value of the live population of untreated control cells. Cells showing fluorescence intensities above this were considered as Dau-positive. […]

[3] = Degradation in rat liver lysosomal homogenate followed by HPLC-MS; type: in vitro ADME
Procedure: The conjugates were treated with lysosomal homogenate for 5 min, 1 h, 6 h, 24 h, and 72 h, and the degradation was followed by HPLC-MS. Control studies investigating conjugates in buffer (without lysosomal homogenate) were also performed, and for these, all conjugates were stable. […] At 6 h, it was the main drug-containing metabolite, and at 72 h, only this Dau-containing fragment could be detected. This time-dependent pattern was also observed in the case of conjugate 2, where Dau was attached to the side chain of Lys in position 15, and the formed smallest metabolite was H-Lys(Dau=Aoa)-OH. […] It is likely that, in this case, a large steric hindrance occurred, and the enzymes were not able to access the peptide bonds around ^10Lys. This observation might explain the discrepancy between the efficient cellular uptake and the lower anticancer activity of this conjugate.
A stock solution with a concentration of 2.5 μg/μL was prepared from the conjugates in distilled water, and this was diluted 100× with 0.2 M sodium acetate buffer (pH 5.03). The rat liver lysosomal homogenate (16.6 μg/μL) was diluted 20× with the same buffer, and then the two solutions were mixed in a 1:1 (protein:peptide, m/m) ratio. In each case, control measurements were also performed, in which buffer was added to the conjugates instead of the lysosomal homogenate. The solutions were stirred at 600 rpm at 37 °C in a thermostat (ThermoMixer, Eppendorf AG, Hamburg, Germany), and after 5 min, 1 h, 6 h, 24 h, and 72 h, 50 μL samples were taken. Each reaction was quenched with 5 μL formic acid and the samples were stored frozen until analysis.
The HPLC-MS analysis of the samples was performed with a Dionex 3000 HPLC-Q Exactive Focus hybrid quadrupole-orbitrap mass spectrometer (Thermo Fisher Scientific, Bremen, Germany). For separation, a Supelco Ascentis C18 column (3 μm, 100 Å, 150 × 2.1 mm; Merck, Darmstadt, Germany) and gradient elution (0 min 2% B, 1 min 2% B, 17 min 90% B; A eluent: 0.1% formic acid/distilled water, eluent B: 0.1% formic acid/acetonitrile + distilled water (80:20, v/v%), flow rate 0.2 mL/min, 40 °C) was used, and high-resolution mass spectra were recorded in the range of 200–1800 m/z. The data were analyzed using the Xcalibur program (Thermo Fisher Scientific).

Structure (SMILES)	IC50 [1] [µM]	toxicity observed during the cellular uptake measurement (live cells in % of untreated control) [2]	release of Dau=Aoa-Gly-OH (in words) ([3]; pH 5.03, 37 °C)	smallest metabolite H-Lys(Dau=Aoa)-OH at 1 h ([3]; 1:1 protein:peptide m/m, 0.2 M sodium acetate pH 5.03, 37 °C, 1 h)	release of the smallest metabolite H-Lys(Dau=Aoa)-OH (in words) ([3]; pH 5.03, 37 °C, up to 72 h)	time of appearance of the Dau=Aoa-Val-Ala-OH fragment ([3]; pH 5.03, 37 °C) [h]	amount of Dau=Aoa-Val-OH detected after 6 h ([3]; pH 5.03, 37 °C, 6 h)
COc1cccc2c1C(=O)c1c(O)c3c(c(O)c1C2=O)C[C@@](O)(C(C)=NOCC(=O)NCC(=O)N[C@@H](Cc1ccccc1)C(=O)N[C@@H](CC(C)C)C(=O)NCC(=O)NCCCC[C@H](NC(=O)CNC(=O)[C@H](CCCNC(=N)N)NC(=O)[C@H](CO)NC(=O)CNC(=O)CNC(=O)[C@H](Cc1ccc(O)cc1)NC(=O)[C@H](Cc1ccccc1)NC(=O)[C@H](Cc1ccccc1)NC(=O)[C@@H](N)[C@@H](C)O)C(=O)N[C@@H](CCCNC(=N)N)C(=O)N[C@@H](CC(N)=O)C(=O)N[C@@H](CC(N)=O)C(=O)N[C@@H](Cc1ccccc1)C(=O)N[C@@H](CCCCN)C(=O)N[C@H](C(=O)N[C@@H](CCC(=O)O)C(=O)N[C@@H](CCC(=O)O)C(=O)N[C@@H](Cc1ccc(O)cc1)C(=O)O)[C@@H](C)O)C[C@@H]3O[C@H]1C[C@H](N)[C@H](O)[C@H](C)O1 [compound 9, H-TFFYGGSRGK(Dau=Aoa-GFLG)RNNFKTEEY-OH]	16.9 ± 5.6	slight toxicity	particularly slow	–	–	–	–
COc1cccc2c1C(=O)c1c(O)c3c(c(O)c1C2=O)C[C@@](O)(C(C)=NOCC(=O)NCCCC[C@H](NC(=O)CNC(=O)[C@H](CCCNC(=N)N)NC(=O)[C@H](CO)NC(=O)CNC(=O)CNC(=O)[C@H](Cc1ccc(O)cc1)NC(=O)[C@H](Cc1ccccc1)NC(=O)[C@H](Cc1ccccc1)NC(=O)[C@@H](NC(=O)CON=C(C)[C@]1(O)Cc2c(O)c4c(c(O)c2[C@@H](O[C@H]2C[C@H](N)[C@H](O)[C@H](C)O2)C1)C(=O)c1c(OC)cccc1C4=O)[C@@H](C)O)C(=O)N[C@@H](CCCNC(=N)N)C(=O)N[C@@H](CC(N)=O)C(=O)N[C@@H](CC(N)=O)C(=O)N[C@@H](Cc1ccccc1)C(=O)N[C@@H](CCCCN)C(=O)N[C@H](C(=O)N[C@@H](CCC(=O)O)C(=O)N[C@@H](CCC(=O)O)C(=O)N[C@@H](Cc1ccc(O)cc1)C(=O)O)[C@@H](C)O)C[C@@H]3O[C@H]1C[C@H](N)[C@H](O)[C@H](C)O1 [compound 7, Dau=Aoa-TFFYGGSRGK(Dau=Aoa)RNNFKTEEY-OH]	7.8 ± 6.3	slight toxicity	–	–	–	–	–
COc1cccc2c1C(=O)c1c(O)c3c(c(O)c1C2=O)C[C@@](O)(C(C)=NOCC(=O)NCCCC[C@H](NC(=O)CNC(=O)[C@H](CCCNC(=N)N)NC(=O)[C@H](CO)NC(=O)CNC(=O)CNC(=O)[C@H](Cc1ccc(O)cc1)NC(=O)[C@H](Cc1ccccc1)NC(=O)[C@H](Cc1ccccc1)NC(=O)[C@@H](N)[C@@H](C)O)C(=O)N[C@@H](CCCNC(=N)N)C(=O)N[C@@H](CC(N)=O)C(=O)N[C@@H](CC(N)=O)C(=O)N[C@@H](Cc1ccccc1)C(=O)N[C@@H](CCCCN)C(=O)N[C@H](C(=O)N[C@@H](CCC(=O)O)C(=O)N[C@@H](CCC(=O)O)C(=O)N[C@@H](Cc1ccc(O)cc1)C(=O)O)[C@@H](C)O)C[C@@H]3O[C@H]1C[C@H](N)[C@H](O)[C@H](C)O1 [compound 4, H-TFFYGGSRGK(Dau=Aoa)RNNFKTEEY-OH]	24 ± 5.9	–	–	not detectable	not efficiently released	–	–
COc1cccc2c1C(=O)c1c(O)c3c(c(O)c1C2=O)C[C@@](O)(C(C)=NOCC(=O)N[C@H](C(=O)N[C@@H](C)C(=O)NCC(=O)NCC(=O)NCCCC[C@H](NC(=O)CNC(=O)[C@H](CCCNC(=N)N)NC(=O)[C@H](CO)NC(=O)CNC(=O)CNC(=O)[C@H](Cc1ccc(O)cc1)NC(=O)[C@H](Cc1ccccc1)NC(=O)[C@H](Cc1ccccc1)NC(=O)[C@@H](N)[C@@H](C)O)C(=O)N[C@@H](CCCNC(=N)N)C(=O)N[C@@H](CC(N)=O)C(=O)N[C@@H](CC(N)=O)C(=O)N[C@@H](Cc1ccccc1)C(=O)N[C@@H](CCCCN)C(=O)N[C@H](C(=O)N[C@@H](CCC(=O)O)C(=O)N[C@@H](CCC(=O)O)C(=O)N[C@@H](Cc1ccc(O)cc1)C(=O)O)[C@@H](C)O)C(C)C)C[C@@H]3O[C@H]1C[C@H](N)[C@H](O)[C@H](C)O1 [compound 11, H-TFFYGGSRGK(Dau=Aoa-VAGG)RNNFKTEEY-OH]	20.2 ± 3	–	–	–	–	1	high amounts
